# In patent US20130260436A1, “Methods of Identifying and Characterizing Natural Product Gene Clusters” (Victoria LInk Limited, priority 2010, published 2013):
# Assays:
# [1] = tested on: wild type BpsA reporter expressed in E. coli BL21(DE3) from a pCDFDuet-based plasmid (slBPSA)
# [2] = tested on: BpsA, single module non-ribosomal peptide synthetase of Streptomyces lavendulae ATCC 11924, purified recombinant 6His-tagged protein (apo form)
# [3] = tested on: E. coli harbouring an activating PPTase; assay: In vivo pigment synthesis activity of BpsA derivatives relative to wild type BpsA; type: cell-based; conditions: E. coli, supernatant A590
# Description: A detailed description of the method used for generation of mBpsA derivatives is given in Section 4.15. Briefly, a plasmid containing bpsA lacking its native T-domain (pBPSA3) was created. This plasmid contained restriction enzyme sites which were subsequently used to introduce foreign T-domain sequence. Foreign T-domains were then amplified from the chromosomal DNA of their host organisms and introduced into pBPSA3 to generate mBpsA derivatives which contained T-domains from foreign NRPS proteins in place of the native T-domain. Only the final embodiment of the T-domain swapping platform is described in this application. This embodiment is the result of rational in-silico design as well as trial and error, which are not described. Using this final platform, five different mBpsA derivatives were generated and subsequently assessed for in vivo pigment synthesis capacity in E. coli harbouring an activating PPTase. Table 3.1 gives a summary of the mBpsA derivatives generated as well as their in vivo pigment synthesis activities relative to wild type BpsA. The derivation of in vivo pigment synthesis activity was as described in 4.10.
# For second tier screening, up to 45 improved clones, along with a positive and negative control, were stored as duplicate glycerol stocks in a 96wp. From this plate duplicate overnight cultures were established in LB supplemented with 0.4% glucose and appropriate antibiotics. […] Overnight cultures were grown for 16-20 h (37° C. 200 rpm) before transfer of 20 μl of each culture into a fresh well containing 130 μL LB supplemented with 115 mM L-Gln, 0.6 mM IPTG and appropriate antibiotics. Assay plates set up in this fashion contained duplicate cultures for each clone from two separate overnights. Assay plates were then wrapped in foil and incubated for 6-24 h (18° C., 200 rpm), depending on activity of improved clones. After incubation cells were collected at the corner of each well by centrifugation and OD 590 values determined using a microplate reader. Assays were repeated at least twice before determination of clones for sequence analysis.
# In vivo pigment synthesis efficiencies for recombinant BpsA proteins described in Section 3.2 were derived from three separate assays. This was necessary due to the fact that pigment synthesis of wild type BpsA saturate before activity of mBpsA derivatives was detectable. Replicate cultures for determination of in vivo pigment synthesis activity were established from overnight starter cultures in a 96 wp as described in Section 4.9.3 The values presented are derived as follows: quadruplicate values for WT BpsA and oBpsA (mutant with reduced activity) were determined after 3 h, at which point pigment production was not saturated for WT. A separate quadruplicate assay was then run to obtain a value for slEntF by comparison to oBpsA after 12 h. Quadruplicate values for slPsT and slPvdD2 were then obtained in a separate assay by comparison to slEntF after 12 h.
Molecule,production of indigoidine on co-expression in E. coli BL21(DE3) [1],"Km (BpsA as variable substrate), BpsA coupled indigoidine assay [2] [µM]","kcat (BpsA as variable substrate), BpsA coupled indigoidine assay [2] [s⁻¹]","kcat/Km (BpsA as variable substrate), BpsA coupled indigoidine assay [2] [M⁻¹ s⁻¹]",Relative activity (in vivo pigment synthesis relative to wild type BpsA) [3] [%]
"PP1183, putative phosphopantetheinyl transferase of Pseudomonas putida KT2440","co-expression of BpsA with any of the three PPTases selected (Sfp, PcpS and PP1183) resulted in substantial production of indigoidine",8.6,0.185,21500,–
"Sfp, phosphopantetheinyl transferase of Bacillus subtilis subsp. spizizenii ATCC6633","co-expression of BpsA with any of the three PPTases selected (Sfp, PcpS and PP1183) resulted in substantial production of indigoidine",3.3,0.0357,10800,–
slPsT1: mBpsA with T-domain from pspph1926 gene of P. syringae 1448a; SEQ ID NO: 9 (protein) MTLQETSVLEPTLQGTTTLPGLLAQRVAEHPEAIAVAYRDDKLTFRELASRSAALADYLEHLGVSADDCVGLFVEPSIDLMVGAWGILNAGAAYLPLSPEYPEDRLRYMIENSETKIILAQQRLVSRLRELAPKDVTIVTLRESEAFVRPEGTEAPAARSARPDTLAYVIYTSGSTGKPKGVMIEHRSIVNQLGWLRETYAIDRSKVILQKTPMSFDAAQWEILSPANGATVVMGAPGVYADPEGLIETIVKHNVTTLQCVPTLLQGLIDTEKFPECVSLQQIFSGGEALSRLLAIQTTQEMPGRALINVYGPTETTINSSSFPVDPADLDEGPQSISIGSPVHGTTYHILDKETLKPVGVGEIGELYIGGIQLARGYLHRDDLTAERFLEIELEEGAEPVRLYKTGDLGQWNNDGTVQFAGRADNQVKLRGYRVELDEISLAIENHDWVRNAAVIVKNDGRTGFQNLIACIELSEKEAALMDQGNHGSHHASKKSKLQVKAQLSNPGLRDDAELAARPAFDLEGAEPTPEQRARVFARKTYRFYEGGAVTQADLLGLLGATVTAGYSRKAADLAPAELGQILRWFGQYISEERLLPKYGYASPGALYATQMYFELEGVGGLKPGYYYYQPVRHQLVLISEREATGKATAQIHFIGKKSGIEPVYKNNILEVLEIETGHMVGLFEQILPAYGLDIHDRAYEPAVKDLLDVADEDYYLGTFELVPHAGARDDQAEVYVQTHGGKVAGLPEGQYRYENGELTRFSDDIVLKKHVIAINQSVYQAASFGISVYSRAEEEWLKYITLGKKLQHLMMNGLNLGFMSSGYSSKTGNPLPASRRMDAVLGANGVDSAPMYFFVGGRISDEQIGHEGMREDSVHMRGPAELIRDDLVSFLPDYMIPNRVVVFDRLPLSANGKIDVKALAASDQVNAELVERPHVAPRTEFEQRLAALWEQVLQVERVGLNDNFFALGGHSLLAVSLAGRIRETFDVSIKLHDFLLMQTLGELADFMRREVAQESSRFVRLHAETGKARPVICWPGLGGYPMNLRSLAGEIGLGRSFYGVQSYGINEGETPYETITEMAKKDIEALKEIQPAGPYTLWGYSFGARVAFETAYQLEQAGEKVDNLFLIAPGSPKVRAENGKVWGREASFANRGYTTILFSVFTGTISGPDLDRCLETVTDEASFAEFISELKGIDVDLARRIISVVGQTYEFEYSFHELAERTLQAPISIFKAVGDDYSFLENSSGYSAEPPTVIDLDADHYSLLREDIGELVKHIRYLLGE,–,–,–,–,~5
slPvdD2: mBpsA with T-domain from second module of pvdD of P. aeruginosa PAO1; SEQ ID NO: 7 (protein) MTLQETSVLEPTLQGTTTLPGLLAQRVAEHPEAIAVAYRDDKLTFRELASRSAALADYLEHLGVSADDCVGLFVEPSIDLMVGAWGILNAGAAYLPLSPEYPEDRLRYMIENSETKIILAQQRLVSRLRELAPKDVTIVTLRESEAFVRPEGTEAPAARSARPDTLAYVIYTSGSTGKPKGVMIEHRSIVNQLGWLRETYAIDRSKVILQKTPMSFDAAQWEILSPANGATVVMGAPGVYADPEGLIETIVKHNVTTLQCVPTLLQGLIDTEKFPECVSLQQIFSGGEALSRLLAIQTTQEMPGRALINVYGPTETTINSSSFPVDPADLDEGPQSISIGSPVHGTTYHILDKETLKPVGVGEIGELYIGGIQLARGYLHRDDLTAERFLEIELEEGAEPVRLYKTGDLGQWNNDGTVQFAGRADNQVKLRGYRVELDEISLAIENHDWVRNAAVIVKNDGRTGFQNLIACIELSEKEAALMDQGNHGSHHASKKSKLQVKAQLSNPGLRDDAELAARPAFDLEGAEPTPEQRARVFARKTYRFYEGGAVTQADLLGLLGATVTAGYSRKAADLAPAELGQILRWFGQYISEERLLPKYGYASPGALYATQMYFELEGVGGLKPGYYYYQPVRHQLVLISEREATGKATAQIHFIGKKSGIEPVYKNNILEVLEIETGHMVGLFEQILPAYGLDIHDRAYEPAVKDLLDVADEDYYLGTFELVPHAGARDDQAEVYVQTHGGKVAGLPEGQYRYENGELTRFSDDIVLKKHVIAINQSVYQAASFGISVYSRAEEEWLKYITLGKKLQHLMMNGLNLGFMSSGYSSKTGNPLPASRRMDAVLGANGVDSAPMYFFVGGRISDEQIGHEGMREDSVHMRGPAELIRDDLVSFLPDYMIPNRVVVFDRLPLSANGKIDVKALAASDQVNAELVERPYRAPGSELEQRIAAIWAEILGVERVGLDDNFFELGGHSLLLLMLKERIGDTCQATLSISQLMTHASVAEQAACIEREVAQESSRFVRLHAETGKARPVICWPGLGGYPMNLRSLAGEIGLGRSFYGVQSYGINEGETPYETITEMAKKDIEALKEIQPAGPYTLWGYSFGARVAFETAYQLEQAGEKVDNLFLIAPGSPKVRAENGKVWGREASFANRGYTTILFSVFTGTISGPDLDRCLETVTDEASFAEFISELKGIDVDLARRIISVVGQTYEFEYSFHELAERTLQAPISIFKAVGDDYSFLENSSGYSAEPPTVIDLDADHYSLLREDIGELVKHIRYLLGE,–,–,–,–,~5
